How the values were obtained:
[1] = molecular target: SDF-1α (stromal cell-derived factor-1 alpha) (Felis catus (Cat) (Felis silvestris catus)) (UniProt O62657); assay: SPR, Fab (about 1250 RU) on anti-CH1 chip, saturating SDF-1α (Figure 5: 1D3)
[2] = molecular target: SDF-1α (stromal cell-derived factor-1 alpha) (Felis catus (Cat) (Felis silvestris catus)) (UniProt O62657); assay: SPR, calculated as (RU SDF-1α/RU Fab)*(M.Wt Fab/M.Wt SDF-1α), Fab on anti-CH1 chip (Figure 5: 1D3)

Chain of SDF-1α (stromal cell-derived factor-1 alpha) (Felis catus (Cat) (Felis silvestris catus)) (O62657 22-89 limits assumed): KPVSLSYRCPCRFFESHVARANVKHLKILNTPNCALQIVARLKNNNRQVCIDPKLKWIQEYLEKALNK

B1: 1D3 Fab (Fab, V domains shown)
VH: EVQLVQSGAEVKKPGASVKVSCKVSGYTLTKLSVHWVRQAPGKGLEWMGSFDPEDGETIYSQRFQGRVTMTEDTSTDTAYMELTSLRSEDTAVYYCATEGQWLVAYYGMDVWGQGTTVTVSS
VL: EIVLTQSPSSLSASVGDRVTITCRASQGISSALAWYQQKPGKAPKLLIYDASSLESGVPSRFSGSGSGTDFTLTISSLQPEDFATYYCQQFNSYPLTFGGGTKVEIK
[1]
  RUSDF-1α (response units of SDF-1α bound): 350 RU
[2]
  stoichiometry (molecules of SDF-1α bound per Fab molecule) (molecules of SDF-1α per Fab molecule): 1.75

From patent WO2008021263A2
